The target of this assay is T1, Recombinant truncated p115 (p115 702-962), carboxy-terminal histidine tag (human, UniProt O60763 702-962).
T1 sequence (looked up): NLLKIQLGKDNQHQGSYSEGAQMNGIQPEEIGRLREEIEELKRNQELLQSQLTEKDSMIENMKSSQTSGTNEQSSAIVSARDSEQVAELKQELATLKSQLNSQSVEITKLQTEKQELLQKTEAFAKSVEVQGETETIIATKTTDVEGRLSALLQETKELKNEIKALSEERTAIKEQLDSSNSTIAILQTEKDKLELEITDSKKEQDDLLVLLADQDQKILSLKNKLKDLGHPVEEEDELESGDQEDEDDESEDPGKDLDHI
Briefly: ELISA. A general note: ELISA stands for enzyme-linked immunosorbent assay.

B1: Biotinylated recombinant human MIF (natural protein, UniProt P14174 1-115, looked up)
chain: MPMFIVNTNVPRASVPDGFLSELTQQLAQATGKPPQYIAVHVVPDQLMAFGGSSEPCALCSLHSIGKIGGAQNRSYSKLLCGLLAERLRISPDRVYINYYDMNAANVGWNNSTFA
modifications: biotin (Biotin Protein Labeling Kit, Roche)
Regarding B1, the binding result is recorded as “binds”.

For the origin of these results see PMC3135652 (Journal of immunology (Baltimore, Md. : 1950), 2009).
